In publication PMC11067747 one finds stoichiometry N data, which are given here for one substance.

This assay addresses recombinant phytoplasmal effector causing phyllody 1 (PHYL1). The assay is described as follows: cross-linking; recombinant IMP and PHYL1 mixed at 30 µM each in 1x PBS, 15 min at 20°C, then 1 mM bis(sulfosuccinimidyl)suberate (BS3) for 60 min; SDS-PAGE and Western blot with anti-IMP and anti-PHYL1.

In general, stoichiometry N refers to the number of molecules, sites or subunits per partner or assembly.

On to “recombinant immunodominant membrane protein (IMP) without the transmembrane domain, amino acids 33-172, from Crotalaria witches' broom phytoplasma (domain or fragment)”, for which the stoichiometry N is 1.
